Positions count from the first letter of the chain named.
B1: PVRIG-A118-H5 (Fc fusion)
chain: EVQLVESGGGLVQPGGSLRLSCAASETYFDLYVMGWYRQAPGKDRELVATITYTGSIKYVDSVKGRFTISRGDAKNSVYLQMNSLRAEDTAVYYCNADPSGLGRKVYWGQGTMVTVSS
notes: humanized variant of PVRIG-A118; also called A118.VH5; not shown: constant part not restated for the humanized forms; parents are VHH-hinge-CH2-CH3 of human IgG1; detected by anti-human
B2: PVRIG-A118-H3 (Fc fusion)
chain: B1 chain with V78L
notes: humanized variant of PVRIG-A118; also called A118.VH3; not shown: constant part not restated for the humanized forms; parents are VHH-hinge-CH2-CH3 of human IgG1; detected by anti-human
B3: PVRIG-A118-H2 (Fc fusion)
chain: B1 chain with G72D, D73N, V78L
notes: humanized variant of PVRIG-A118; also called A118.VH2; not shown: constant part not restated for the humanized forms; parents are VHH-hinge-CH2-CH3 of human IgG1; detected by anti-human
B4: PVRIG-A118-H1 (Fc fusion)
chain: B1 chain with K58Y, G72D, D73N, V78L
notes: humanized variant of PVRIG-A118; also called A118.VH1; not shown: constant part not restated for the humanized forms; parents are VHH-hinge-CH2-CH3 of human IgG1; detected by anti-human
B5: PVRIG-A118-H6 (Fc fusion)
chain: B1 chain with Y59I, V78L
notes: humanized variant of PVRIG-A118; also called A118.VH6; not shown: constant part not restated for the humanized forms; parents are VHH-hinge-CH2-CH3 of human IgG1; detected by anti-human
B6: PVRIG-A118-H7 (Fc fusion)
chain: B1 chain with V78L, Y94F
notes: humanized variant of PVRIG-A118; also called A118.VH7; not shown: constant part not restated for the humanized forms; parents are VHH-hinge-CH2-CH3 of human IgG1; detected by anti-human
B7: PVRIG-A50-H1 (Fc fusion)
chain: EVQLVESGGGLVQPGGSLRLSCAASGFTFSYYDMSWVRQAPGKGLEWVSTINSNGGRTSYVDSVKGRFTISRDNSKNTLYLQMNSLRAEDTAVYYCVEGDPHNFGLENLSLRDFGSWGQGTMVTVSS
notes: humanized variant of PVRIG-A50; also called A50.VH1; not shown: constant part not restated for the humanized forms; parents are VHH-hinge-CH2-CH3 of human IgG1; detected by anti-human
B8: PVRIG-A50-H1d (Fc fusion)
chain: B7 chain with N108S
notes: humanized variant of PVRIG-A50; also called A50.VH1d; not shown: constant part not restated for the humanized forms; parents are VHH-hinge-CH2-CH3 of human IgG1; detected by anti-human

Columns and labels:
[1] = target: T1, cynomolgus monkey PVRIG (Novoprotein, Cat NO. C09B) (cynomolgus monkey, UniProt A0A2K5WVV8 41-171); assay: ELISA, antigen coated
T1 construct: also called cynomolgus monkey PVRIG protein
T1 sequence: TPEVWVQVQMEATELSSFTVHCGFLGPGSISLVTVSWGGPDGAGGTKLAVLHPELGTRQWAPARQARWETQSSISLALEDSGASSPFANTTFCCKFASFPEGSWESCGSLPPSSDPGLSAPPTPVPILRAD
Method: (§1) The ELISA plate was pre-coated with 100 μL/well of 0.5 μg/mL human PVRIG-his (AcroBiosystems, Cat NO. PVG-H52H4) or cynomolgus monkey PVRIG (Novoprotein, Cat NO. C09B). The tested anti-PVRIG humanized antibodies were serially diluted (initial concentration 3 nM, 3-fold serial dilution), added into the plate (100 μL/well) and incubated with shaking at room temperature for 1.5 hours. […] A HRP substrate, TMB (Thermo, Cat NO. 34029) was added into wells after washing the plate again for color development. After adding a termination solution to terminate the reaction, the absorbance value was read by a microplate reader (MD i3×). An antibody binding curve was drawn with concentration of antibodies as the abscissa and the corresponding OD value as the ordinate. The EC50 value was calculated by using a Four Parameter Logistic Fit (GraphPadPrism9). The smaller the EC50 value, the stronger the ability of the antibodies binds to human or cynomolgus monkey PVRIG. The binding effect of the humanized antibodies was normalized to the corresponding parental antibodies. If the percentage value is higher than 100%, the binding effect of humanized antibodies is better than that of parental antibody.

[2] = target: T2, human PVRIG-his (AcroBiosystems, Cat NO. PVG-H52H4) (human, UniProt Q6DKI7 41-171, limits assumed); assay: ELISA, antigen coated
T2 construct: also called human PVRIG protein
T2 sequence (looked up): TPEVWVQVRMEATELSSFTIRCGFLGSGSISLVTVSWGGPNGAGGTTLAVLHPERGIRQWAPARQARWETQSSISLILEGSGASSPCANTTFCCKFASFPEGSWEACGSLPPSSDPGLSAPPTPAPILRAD
Method: as §1

[3] = target: T3, cynomolgus monkey PVRIG on FlpinCHO-cyno PVRIG cells (cynomolgus monkey, UniProt A0A2K5WVV8 41-322); assay: FACS, FlpinCHO-cyno PVRIG cells
T3 construct: whole, on cells
T3 sequence: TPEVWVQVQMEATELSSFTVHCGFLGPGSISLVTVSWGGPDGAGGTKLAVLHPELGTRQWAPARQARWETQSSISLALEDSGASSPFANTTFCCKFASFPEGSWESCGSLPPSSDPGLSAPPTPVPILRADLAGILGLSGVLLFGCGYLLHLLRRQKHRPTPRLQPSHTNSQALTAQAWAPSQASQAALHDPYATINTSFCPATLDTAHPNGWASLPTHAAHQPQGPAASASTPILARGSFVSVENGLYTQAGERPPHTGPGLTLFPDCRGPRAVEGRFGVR
Method: The antibodies were diluted from the highest concentration of 46 nM (two-fold concentration) with staining buffer by 3.3-fold serial dilution. The diluted antibodies were added to the well containing 50 μL of cell suspension. The plate was placed on a microplate shaker at 400 rpm for 1 minute to fully mix the antibodies and cells, and then incubated at 4° C. for 30 minutes. After the incubation, the cells were washed twice with staining buffer (200 μL per well) and centrifuged at 350×g for 5 minutes to discard the supernatant. The PE goat anti-human IgG Fc antibody (ebioscience, 12-4998-82) was diluted 250 times with staining buffer, added into the washed wells (100 μL per well), mixed well, and stained at 4° C. for 30 minutes. After staining, the cells were washed twice with staining buffer, finally resuspended with 200 μL staining buffer and analyzed by flow cytometry (BD, Canto II). The stronger the signal, the stronger the ability of the antibodies binds to PVRIG. An antibody binding curve was drawn with concentration of antibodies as the abscissa and the corresponding Mean Fluorescence Intensity (MFI) as the ordinate. The AUC value of the curve was calculated by using a Four Parameter Logistic Fit (GraphPadPrism9). The stronger the AUC value, the stronger the ability of the antibodies binds to FlpinCHO-PVRIG and FlpinCHO-cyno PVRIG. […] The binding activity of the antibodies was normalized to the positive control COM701-hIgG1 and SRF813-hIgG1. The higher the percentage value, the stronger the binding ability of the antibodies.
The methods refer to Example 19. The stronger the AUC value, the stronger the ability of the humanized antibodies binds to FlpinCHO-human/cyno PVRIG.

Binder	% relative activity parental antibody/tested antibody [1] [%]	EC50 [1] [nM]	% relative activity parental antibody/tested antibody [2] [%]	EC50 [2] [nM]	AUC % to COM701-hIgG1 [3] [%]	AUC % to SRF813-hIgG1 [3] [%]	AUC % to parental Ab [3] [%]
B1	40.2	0.0673	104	0.0481	21.8	26.6	35
B2	34	0.0794	100	0.05	21	25.6	33.6
B3	4.55	0.594	102	0.0491	14.6	17.8	23.4
B4	4.62	0.585	110	0.0456	11.5	14.1	18.5
B5	48.4	0.0559	90.8	0.0551	19.9	24.2	31.8
B6	33.1	0.0817	99.9	0.0501	19.7	24	31.6
B7	95.1	0.13	105	0.0871	45.2	55.5	96
B8	111	0.111	118	0.0774	48.6	59.7	103
